In US20220288168A1 (Eli Lilly, published 2022):
Numbered stars: 1 amine (or outer) side, 2 acyl side, 3 side chain; on linkers, the order of the positions; unused ones are H or OH. Bridge positions count the residues as written; N and C are the ends. Square brackets hold non-standard residues; d marks the D form. Side chains are listed from the residue outwards. Ends that are not written are not given here. * marks the point of attachment. C20 diacid = O=C(O)CCCCCCCCCCCCCCCCCCC(=O)*; γGlu = O=C(O)[C@H](CCC(=O)[*:2])N[*:1]; αMeF = C[C@](N)(Cc1ccccc1)C(=O)O; NMeD = CN[C@@H](CC(=O)O)C(=O)O; NMeN = CN[C@@H](CC(N)=O)C(=O)O; αMeL = CC(C)C[C@](C)(N)C(=O)O; Orn = NCCC[C@H](N)C(=O)O; AEEA = NCCOCCOCC(=O)O; CH2 = C([*:1])[*:2]

T1: human calcitonin receptor (hCTR) (human, UniProt P30988 25-474)
T1 construct: whole, on cells; also called human CT receptor
T1 sequence (looked up): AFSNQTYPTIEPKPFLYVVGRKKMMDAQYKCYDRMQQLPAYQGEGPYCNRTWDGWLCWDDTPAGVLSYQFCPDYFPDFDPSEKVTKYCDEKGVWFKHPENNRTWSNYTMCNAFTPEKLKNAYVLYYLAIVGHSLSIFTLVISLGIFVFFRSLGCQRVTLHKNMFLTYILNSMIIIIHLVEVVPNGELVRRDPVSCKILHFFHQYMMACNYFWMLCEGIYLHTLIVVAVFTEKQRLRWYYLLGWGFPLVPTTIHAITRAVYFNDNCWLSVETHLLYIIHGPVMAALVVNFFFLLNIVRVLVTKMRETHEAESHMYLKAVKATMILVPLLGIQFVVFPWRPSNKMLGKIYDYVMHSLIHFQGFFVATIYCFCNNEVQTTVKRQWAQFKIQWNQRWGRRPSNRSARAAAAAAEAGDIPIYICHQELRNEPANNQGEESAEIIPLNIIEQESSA


Biological target: T2, human amylin receptor 1 (hAMY1R): human calcitonin receptor co-expressed with human RAMP1 in UMUC3 cells (human, UniProt P30988 25-474; O60894 27-148)
T2 construct: whole, on cells; also called AMY1 receptor; hAMYIR
Assay: competitive radioligand binding filter assay, hAMY1R membranes, displacement of 125I-rAMY
Method: The equilibrium dissociation constants (Kd) for the various receptor/radioligand interactions are determined from saturation binding analysis using the same reagents and buffers as described below for compound testing.
Binding reactions are carried out in 0.1 mL total reaction volume in a polystyrene 96 deep-well assay block. […] The binding reaction is initiated by the addition of 0.05 mL of 200 μg/mL hAMY1R diluted in assay buffer to the radioactivity. Assay blocks are gently vortexed, sealed with parafilm, and incubated at RT for approximately 20 hours.

T2 sequence (O60894 27-148, chain 2 of 2, one chain of several): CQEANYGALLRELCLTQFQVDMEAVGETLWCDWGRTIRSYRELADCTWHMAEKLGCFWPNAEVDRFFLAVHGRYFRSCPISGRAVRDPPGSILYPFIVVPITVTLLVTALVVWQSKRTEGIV

| Ki [nM] | Binder |
| --- | --- |
| 0.017 | [γGlu]CNTATCATG[Orn]LAE[αMeF]LVRSSN[NMeN]FGPK([γGlu-γGlu-C20 diacid])LPPTEVGSNTY-NH2 (bridge 2-7 via CH2, Acylated form of Compound I) [Compound II] |
| 0.0445 | K([γGlu-γGlu-C20 diacid])CETATCATG[Orn]LAE[αMeF]LVRSSN[NMeD]FGPILPPTEVGSNTY-NH2 (bridge 2-7 via CH2, Acylated form of Compound V) [Compound VI] |
| 0.0435 | K([γGlu-γGlu-C20 diacid])CETATCATG[Orn][αMeL]AEFLVRSSHNFGPILPPTEVGSNTY-NH2 (bridge 2-7 via CH2, Acylated form of Compound VII) [Compound VIII] |
| 0.0296 | [γGlu]CNTATCATG[Orn]LAE[αMeF]LVRSSN[NMeD]FGPK([γGlu-γGlu-C20 diacid])LPPTEVGSNTY-NH2 (bridge 2-7 via CH2, Acylated form of Compound III) [Compound IV] |

Biological target: T1, human calcitonin receptor (hCTR)
Assay: competitive radioligand binding filter assay, hCTR membranes, displacement of 125I-hCT

| Ki [nM] | Binder |
| --- | --- |
| 202 | [γGlu]CNTATCATG[Orn]LAE[αMeF]LVRSSN[NMeN]FGPK([γGlu-γGlu-C20 diacid])LPPTEVGSNTY-NH2 (bridge 2-7 via CH2, Acylated form of Compound I) [Compound II] |
| 235 | K([γGlu-γGlu-C20 diacid])CETATCATG[Orn]LAE[αMeF]LVRSSN[NMeD]FGPILPPTEVGSNTY-NH2 (bridge 2-7 via CH2, Acylated form of Compound V) [Compound VI] |
| 927 | K([γGlu-γGlu-C20 diacid])CETATCATG[Orn][αMeL]AEFLVRSSHNFGPILPPTEVGSNTY-NH2 (bridge 2-7 via CH2, Acylated form of Compound VII) [Compound VIII] |
| 665 | [γGlu]CNTATCATG[Orn]LAE[αMeF]LVRSSN[NMeD]FGPK([γGlu-γGlu-C20 diacid])LPPTEVGSNTY-NH2 (bridge 2-7 via CH2, Acylated form of Compound III) [Compound IV] |

Biological target: T1, human calcitonin receptor (hCTR)
Assay: cell-based or functional assay

| Binder | hCTR cAMP EC50 [nM] |
| --- | --- |
| [γGlu]CNTATCATG[Orn]LAE[αMeF]LVRSSN[NMeN]FGPK([γGlu-γGlu-C20 diacid])LPPTEVGSNTY-NH2 (bridge 2-7 via CH2, Acylated form of Compound I) [Compound II] | 2.34 |
| KCETATCATG[Orn]LAE[αMeF]LVRSSN[NMeD]FGPILPPTEVGSNTY-NH2 (bridge 2-7 via CH2) [Compound V] | 17 |
| K([γGlu-γGlu-C20 diacid])CETATCATG[Orn]LAE[αMeF]LVRSSN[NMeD]FGPILPPTEVGSNTY-NH2 (bridge 2-7 via CH2, Acylated form of Compound V) [Compound VI] | 13.2 |
| KCETATCATG[Orn][αMeL]AEFLVRSSHNFGPILPPTEVGSNTY-NH2 (bridge 2-7 via CH2) [Compound VII] | 11.9 |
| [γGlu]CNTATCATGKLAEFLVRSSNNFGPK([AEEA-AEEA-γGlu-C20 diacid])LPPTEVGSNTY-NH2 (bridge 2-7 via CH2) [Compound IX] | 18.9 |
| [γGlu]CNTATCATG[Orn]LAE[αMeF]LVRSSN[NMeD]FGPKLPPTEVGSNTY-NH2 (bridge 2-7 via CH2) [Compound III] | 16.3 |
| [γGlu]CNTATCATG[Orn]LAE[αMeF]LVRSSN[NMeN]FGPKLPPTEVGSNTY-NH2 (bridge 2-7 via CH2) [Compound I] | 18 |
| [γGlu]CNTATCATG[Orn]LAE[αMeF]LVRSSN[NMeD]FGPK([γGlu-γGlu-C20 diacid])LPPTEVGSNTY-NH2 (bridge 2-7 via CH2, Acylated form of Compound III) [Compound IV] | 6.14 |

Results, then the binder that gave them:

| hCTR cAMP EC50 [nM] | Binder |
| --- | --- |
| 25.9 | [γGlu]CNTATCATQ[Orn]LAEFLVRSSNNFGPK([AEEA-AEEA-γGlu-C20 diacid])LPPTEVGSNTY-NH2 (bridge 2-7 via CH2) [Compound XII] |
| 10.5 | [γGlu]CNTATCATGKLAEFLVRSSNNFGPK([γGlu-γGlu-AEEA-C20 diacid])LPPTEVGSNTY-NH2 (bridge 2-7 via CH2) [Compound XI] |
| 14 | [γGlu]CNTATCATGKLAEFLVRSSNNFGPK([γGlu-AEEA-AEEA-C20 diacid])LPPTEVGSNTY-NH2 (bridge 2-7 via CH2) [Compound X] |
| 9.49 | [γGlu]CGTATCATG[Orn]LAEFLVRSSNNFGPK([γGlu-γGlu-C20 diacid])LPPTEVGSNTY-NH2 (bridge 2-7 via CH2) [Compound XIII] |
| 9.69 | K([γGlu-γGlu-C20 diacid])CETATCATG[Orn][αMeL]AEFLVRSSHNFGPILPPTEVGSNTY-NH2 (bridge 2-7 via CH2, Acylated form of Compound VII) [Compound VIII] |

Biological target: T2, human amylin receptor 1 (hAMY1R): human …
Assay: cell-based or functional assay

| Binder | hAMYIR cAMP EC50 [nM] |
| --- | --- |
| [γGlu]CNTATCATG[Orn]LAE[αMeF]LVRSSN[NMeN]FGPK([γGlu-γGlu-C20 diacid])LPPTEVGSNTY-NH2 (bridge 2-7 via CH2, Acylated form of Compound I) [Compound II] | 0.075 |
| KCETATCATG[Orn]LAE[αMeF]LVRSSN[NMeD]FGPILPPTEVGSNTY-NH2 (bridge 2-7 via CH2) [Compound V] | 0.139 |
| K([γGlu-γGlu-C20 diacid])CETATCATG[Orn]LAE[αMeF]LVRSSN[NMeD]FGPILPPTEVGSNTY-NH2 (bridge 2-7 via CH2, Acylated form of Compound V) [Compound VI] | 0.107 |
| KCETATCATG[Orn][αMeL]AEFLVRSSHNFGPILPPTEVGSNTY-NH2 (bridge 2-7 via CH2) [Compound VII] | 0.173 |
| [γGlu]CNTATCATGKLAEFLVRSSNNFGPK([AEEA-AEEA-γGlu-C20 diacid])LPPTEVGSNTY-NH2 (bridge 2-7 via CH2) [Compound IX] | 0.132 |
| [γGlu]CNTATCATG[Orn]LAE[αMeF]LVRSSN[NMeD]FGPKLPPTEVGSNTY-NH2 (bridge 2-7 via CH2) [Compound III] | 0.156 |
| [γGlu]CNTATCATG[Orn]LAE[αMeF]LVRSSN[NMeN]FGPKLPPTEVGSNTY-NH2 (bridge 2-7 via CH2) [Compound I] | 0.133 |
| [γGlu]CNTATCATG[Orn]LAE[αMeF]LVRSSN[NMeD]FGPK([γGlu-γGlu-C20 diacid])LPPTEVGSNTY-NH2 (bridge 2-7 via CH2, Acylated form of Compound III) [Compound IV] | 0.107 |

Results, then the binder that gave them:

| hAMYIR cAMP EC50 [nM] | Binder |
| --- | --- |
| 0.113 | [γGlu]CNTATCATQ[Orn]LAEFLVRSSNNFGPK([AEEA-AEEA-γGlu-C20 diacid])LPPTEVGSNTY-NH2 (bridge 2-7 via CH2) [Compound XII] |
| 0.038 | [γGlu]CNTATCATGKLAEFLVRSSNNFGPK([γGlu-γGlu-AEEA-C20 diacid])LPPTEVGSNTY-NH2 (bridge 2-7 via CH2) [Compound XI] |
| 0.08 | [γGlu]CNTATCATGKLAEFLVRSSNNFGPK([γGlu-AEEA-AEEA-C20 diacid])LPPTEVGSNTY-NH2 (bridge 2-7 via CH2) [Compound X] |
| 0.078 | [γGlu]CGTATCATG[Orn]LAEFLVRSSNNFGPK([γGlu-γGlu-C20 diacid])LPPTEVGSNTY-NH2 (bridge 2-7 via CH2) [Compound XIII] |
| 0.107 | K([γGlu-γGlu-C20 diacid])CETATCATG[Orn][αMeL]AEFLVRSSHNFGPILPPTEVGSNTY-NH2 (bridge 2-7 via CH2, Acylated form of Compound VII) [Compound VIII] |
